Source: publication PMC10657408, “c-di-GMP inhibits the DNA binding activity of H-NS in Salmonella” (Nature Communications, 2023)
Numbering of substitutions follows the chain as printed.

How the values were obtained:
[1] = target: T1, H-NS (Salmonella enterica, UniProt A0A0H3NBY9); assay: ITC ([…] stoichiometry); also UV-crosslinking competition and EMSA inhibition of DNA binding
T1 construct: gene hns; full-length, tag-free

[2] = target: StpA (Salmonella enterica, UniProt P0A1S4); assay: Kd measurement (ITC, Supplementary Fig. […]b); type: binding
[3] = target: T2, StpA (Salmonella enterica, UniProt P0A1S4, F98Y); assay: Kd measurement (ITC, Supplementary Fig. […]b); type: binding
T2 sequence (P0A1S4 1-133 F98Y): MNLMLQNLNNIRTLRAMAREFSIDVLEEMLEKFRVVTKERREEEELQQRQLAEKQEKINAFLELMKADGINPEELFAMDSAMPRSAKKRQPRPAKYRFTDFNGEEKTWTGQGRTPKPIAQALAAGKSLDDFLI

[4] = target: T3, H-NS K107A K107A (Salmonella enterica serovar Typhimurium (LT2 reference genome; SL1344 also used)) (UniProt P0A1S2); assay: EMSA; conditions: ITC: 25 mM Tris-HCl, 150 mM NaCl, pH 7.5, 20 C, 100 uM DNA into 10 uM protein; EMSA: 20 mM Tris-HCl, 4 mM MgCl2, 100 mM NaCl, 1 mM DTT, 1% NP-40, 10% glycerol …
T3 sequence: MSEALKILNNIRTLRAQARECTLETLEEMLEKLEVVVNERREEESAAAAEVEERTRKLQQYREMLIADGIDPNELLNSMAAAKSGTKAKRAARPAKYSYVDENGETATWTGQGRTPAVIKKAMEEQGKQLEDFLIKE

[5] = target: T4, H-NS (Salmonella enterica serovar Typhimurium (LT2 reference genome; SL1344 also used)) (UniProt P0A1S2); assay: EMSA; conditions: ITC: 25 mM Tris-HCl, 150 mM NaCl, pH 7.5, 20 C, 100 uM DNA into 10 uM protein; EMSA: 20 mM Tris-HCl, 4 mM MgCl2, 100 mM NaCl, 1 mM DTT, 1% NP-40, 10% glycerol …
T4 sequence: T3 sequence with A107K

[6] = target: T3, H-NS K107A K107A (Salmonella enterica serovar Typhimurium (LT2 reference genome; SL1344 also used)); assay: ITC; conditions: ITC: 25 mM Tris-HCl, 150 mM NaCl, pH 7.5, 20 C, 100 uM DNA into 10 uM protein; EMSA: 20 mM Tris-HCl, 4 mM MgCl2, 100 mM NaCl, 1 mM DTT, 1% NP-40, 10% glycerol …
[7] = target: T4, H-NS (Salmonella enterica serovar Typhimurium (LT2 reference genome; SL1344 also used)); assay: ITC; conditions: ITC: 25 mM Tris-HCl, 150 mM NaCl, pH 7.5, 20 C, 100 uM DNA into 10 uM protein; EMSA: 20 mM Tris-HCl, 4 mM MgCl2, 100 mM NaCl, 1 mM DTT, 1% NP-40, 10% glycerol …
[8] = target: T5, H-NS T115A T115A (Salmonella enterica serovar Typhimurium (LT2 reference genome; SL1344 also used)) (UniProt P0A1S2); assay: ITC; conditions: ITC: 25 mM Tris-HCl, 150 mM NaCl, pH 7.5, 20 C, 100 uM DNA into 10 uM protein; EMSA: 20 mM Tris-HCl, 4 mM MgCl2, 100 mM NaCl, 1 mM DTT, 1% NP-40, 10% glycerol …
T5 sequence: T3 sequence with A107K, T115A

[9] = tested on: H-NS K107A (Salmonella enterica serovar Typhimurium (LT2 reference genome; SL1344 also used)); assay: ITC; conditions: ITC: 25 mM Tris-HCl, 150 mM NaCl, pH 7.5, 20 C, 100 uM DNA into 10 uM protein; EMSA: 20 mM Tris-HCl, 4 mM MgCl2, 100 mM NaCl, 1 mM DTT, 1% NP-40, 10% glycerol …
[10] = tested on: H-NS (Salmonella enterica serovar Typhimurium (LT2 reference genome; SL1344 also used)); assay: ITC; conditions: ITC: 25 mM Tris-HCl, 150 mM NaCl, pH 7.5, 20 C, 100 uM DNA into 10 uM protein; EMSA: 20 mM Tris-HCl, 4 mM MgCl2, 100 mM NaCl, 1 mM DTT, 1% NP-40, 10% glycerol …

Compound	binding [4]	binding [5]	Kd [6] [nM]	Kd [7] [nM]	Kd [9] [nM]	Kd [10] [nM]	other results
Nc1nc2c(ncn2[C@@H]2O[C@@H]3CO[P@](=O)(O)O[C@H]4[C@@H](O)[C@H](n5cnc6c(=O)[nH]c(N)nc65)O[C@@H]4CO[P@](=O)(O)O[C@H]3[C@H]2O)c(=O)[nH]1 [c-di-GMP]							Kd [1]: 270 ± 40 nM; Kd [2]: 73000 ± 14000 nM; Kd [3]: 640 ± 90 nM
ATGTTTCATGGATTTCCCTTGAATTACACACACCCGGTTTCGGCATCCTGTCGGCTCCGTTTGAATTATTATCGACATAGCATGTCAGAAAAGTTATCTCTGCATCCTGTAAAGATAGATATCGCAGATTAATTAGTTTTCTGTTTCTCCCCTGAGTATCAGACGCAGTAATTAATCTTTGCGAATATGACATTTCGTCACGGTAATAAATTAAACATTTCGCTAAATAAAAAATAGCCG (double strand) [PfimA]	binds	binds	430	360			
CAAAACTCATGGTAGTGACTCCTTTAATACCGGATTAAAATAAATAGACTCACCGTCAGGAAACAGTGCCCCGCACTTTATAATGCAACCAGCCTGTTATATTTAAATATTTACCAGAAGAACAGGGTATATTGCTGACAAGAGCCATGAAAATAAAAACACAAAAATTAGCACATAACATAAATACTGAATTACATAAATAAGGAAATGAACATAACAATA (double strand) [PvgrG]	binds	binds	380	460			binding [8]: binds more weakly
PclpV					320	310	
PfimA					430	360	
PvgrG					380	460	
PyaiU						290	
TAATCGATGGTGTTATCATTAGGAAGATAAATTTCTTCATATATAACCCAGTCGATGACTACAATTACTTTTTAATAAGATGGCGATGTAAAAACATCGTAACAGTTTATTTAATAAATAATTTTTCAAATTGTAAGTTTTTATGTCAATGCTGAAAATGTAATTGTGAATTTATCGGAAAATCCGAATGATAGAATCGCCTGTGACAAGGTATATGTAGACAGCATCCTGATATTGTA (double strand) [PssrAB]		binds					
TTCCATGTGTTATGCCTTGTGACATAAAAATTCATAAAAATAATGCATCAATGCATATAAATATATAAACAATTCTTTATTGATAGCCTCGAAAAAATATCGAAACAAAACAATGATACAGATCAGGGACTAATTAGCAACTAAGCCGTTAATATTAAATAATCAATGAACAGCAAGATAAAAA (double strand) [PclpV]	binds	binds	320	310			binding [8]: binds more weakly
